The RNAGym collection of RNA variant scans (doi:10.1073/pnas.2313332121)
This sample holds only a part of the variants without activity.

B1: TPR 5TU (parent)
chain: GGAUCUUCUCGAUCUAACAAAAAAGACAAAUCUGCCACAAAGCUUGAGAGCAUCUUCGGAUGCAGAGGCGGCAGCCUUCGGUGGCGCGAUAGCGCCAACGUUCUCAACUAUGACACGCAAAACGCGUGCUCCGUUGAAUGGAGUUUAUCAUG

Variants of: B1
Test: polymerase ribozyme fitness, log enrichment relative to wild type (log ratio); higher = more active; in vitro selection for triplet polymerase activity
How it was run: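 One round of in vitro selection, in triplicate, was applied to PCR-built, transcribed mutant libraries of each subunit of a heterodimeric triplet polymerase ribozyme. The steps were annealing with a biotinylated primer, partner subunit and triplets, incubation frozen at −7 °C, gel excision of extended constructs, streptavidin-bead capture and RT-PCR. Fitness is the logarithm, base 2, of genotype enrichment over wild-type enrichment from inverse-variance-weighted replicate averages of Illumina-sequenced inputs and outputs, keeping genotypes with ≥10 input reads and ≥1 read per output.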

Variant | polymerase ribozyme fitness (log ratio)
C36U C87G | ≤ -4.2
C63G U78A C79U C85U A98G A106U U134C A142G U146A | ≤ -4.2
U55A U61A | -3.16
A26U A40U A91U A122U | ≤ -4.2
A3G G83A G86U C118U | -3.29
G59U U102G | -3.26
C51U C69A G84U A91G G133A U144A A147U | ≤ -4.2
A40C A97U | -0.185
A21G C27U A40U C69U C95G A98G C99U A115U A142U | ≤ -4.2
A16U A37U C76G U82G A89G A91G G143U | ≤ -4.2
U45G G83A | -0.848
G84A C105U | 0.191
G59A C85G G126U | -2.21
U45G U56A | 0.0147
A29G A52G | -4.08
U13C A22U A24U U53A A98U | -1.6
C87U A150C | -3.7
A19C U61A C103A | ≤ -4.2
U61A A147U | -0.329
U9A G128C U139A | ≤ -4.2
A52G C105A C123A G133U U144G | ≤ -4.2

Variant | polymerase ribozyme fitness (log ratio)
C35A A39C A91U A121U | ≤ -4.2
G58C C63U C95G | -2.14
C72U G92A C116U U139G | -3.15
A52U G84A G143C | -3.92
A12G U61A C76A A106G | -3.97
C27A G34U U53A G71C G88U C96U U144A U146A | ≤ -4.2
U4G G11U G59A C93U C125U U144C | ≤ -4.2
G92A U135A U145C | -3.89
A17C A21U C51U G59C C95U A106U G136C U151G | ≤ -4.2
U90A C95U A121U U127A | ≤ -4.2
U55G A73C C87A | ≤ -4.2
A20U U61G C87U C95U | -3.33
A17C C95U A119U A150G | -1.7
G11C A39U A73U C96U | ≤ -4.2
C8U A106G | -2.98
A24G C57U | -3.7
A28U A47C | -3.9
U61G C85A G141A | -1.58
C10G A22G A39U U109C | ≤ -4.2
U44A A49C | -4.06
G50C G67A U90G A142G | ≤ -4.2

Variant | polymerase ribozyme fitness (log ratio)
C14A U101G | -1.35
C76A G83U A106G | -3.45
G58A A91C | ≤ -4.2
G11A C114G G124U | -4.03
A39G C75U C85U | -3.44
A41C A49C | -4.01
U45A A52U U56A C76U | ≤ -4.2
A66G G133U U145A | ≤ -4.2
G46A C54A C76U G143A | ≤ -4.2
A29U G50U C116U A147U | -4.04
A3U U31G C36U C96A | -2.99
G11U A66C C76U U90G U102G U148G | ≤ -4.2
A21G A39U G83A U90G G92C C108G | ≤ -4.2
A3G A23U C85A A106U G133U G143U | ≤ -4.2
G42C U44A A52G G70U G83C | ≤ -4.2
A12G A22G A39U A47U G92U A97G U101G | ≤ -4.2
A17C G74C C87U G92C C105G G136U | ≤ -4.2
U53A G58A | -0.0533
A115G U135A | -2.48
C54U C95G A98G | -2.01
G83U C96A | -0.528

Variant | polymerase ribozyme fitness (log ratio)
G48C C93G | -3.04
A29C A37U G133A | ≤ -4.2
G59A C69A G86U A89C C95G | ≤ -4.2
C57U C93A G126C | -0.766
G80U C118A A119G | -1.3
U7A A24C G50U A52U C87G | ≤ -4.2
A21U C87G | ≤ -4.2
G46A A47G G48A G50C G136A | ≤ -4.2
A22U C27U C36U A98U | -3.64
A22G C85U | -0.836
A47C U56A C87A C93G A121U C132G G143A U144C | ≤ -4.2
A52G C54G G67C G81A C95G | -3.86
G92U C93U | -2.13
A40C U55A A89C | 0.0362
A20U A21C U102A C125G | -3.5
A47C C57U G67C C69A A91U C149U | ≤ -4.2
G58A U61A A107G C118G A119G | ≤ -4.2
A12C A98G | -0.18
U53A U144C U145G | -1.92
C8A U56A A60U C93A U109G A113U U139G U145C A147G | ≤ -4.2
